Patent US20090186040A1 (published 2009)

Molecular target: T1, BLyS (B-lymphocyte stimulator) (UniProt Q9Y275 134-285)
T1 construct: Endogenous BLyS in the serum of human SLE patients; The complex with atacicept was detected by sandwich ELISA
Test: ELISA of atacicept/BLyS complex in serum of dosed SLE patients (subcutaneous, Study 1)
Description: Pharmacokinetics were assessed by measuring serum levels of free atacicept (Table 2a), atacicept/BLyS complex (Table 3a), and composite atacicept (defined as free atacicept+atacicept-BLyS complex, Table 4a). Serum levels of each of these were quantified using an enzyme-linked immunosorbant assay. Serum was incubated with a biotin-conjugated mouse mAb specific for atacicept (free or total atacicept detection) (ZymoGenetics, Inc., Seattle, Wash.) or biotin-conjugated goat polyclonal antibodies specific for either BLyS or atacicept (atacicept/BLyS complex detection) (R & D Systems, Minneapolis, Minn.), immobilized on a streptavidin-coated microplate (Adaltis, Montreal, Quebec). […] In all three assays, atacicept serum levels were detected and quantified using standard […] methods, i.e., after washing tetramethylbenzidine (TMB) was added as HRP substrate (Sigma-Aldrich, St. Louis, Mo.). The reaction was halted after 20 minutes using 0.5 M sulfuric acid and the absorbance recorded at 450 nm. […] All samples were measured in triplicate. […] The lower limits of quantification (LLOQ) of the assays were 15.6 ng/mL for free atacicept, 5 U/mL for atacicept-BLyS complex (1 U/mL corresponding to 1.82 ng/mL atacicept-0.44 ng/mL BLyS in a 3:1 molar ratio), and 25 ng/mL for the composite analytes. […]

binding result: binds
B1: atacicept (Fc fusion)
chain: AMRSCPEEQYWDPLLGTCMSCKTICNHQSQRTCAAFCRSLSCRKEQGKFYDHLLRDCISCASICGQHPKQCAYFCENKLRSEPKSSDKTHTCPPCPAPEAEGAPSVFLFPPKPKDTLMISRTPEVTCVVVDVSHEDPEVKFNWYVDGVEVHNAKTKPREEQYNSTYRVVSVLTVLHQDWLNGKEYKCKVSNKALPSSIEKTISKAKGQPREPQVYTLPPSRDELTKNQVSLTCLVKGFYPSDIAVEWESNGQPENNYKTTPPVLDSDGSFFLYSKLTVDKSRWQQGNVFSCSVMHEALHNHYTQKSLSLSPGK
modifications: Fc-linked homodimer in the drug; one chain is given.
notes: also called TACI-Ig; TACI-Fc5
